The results in this text go back to PMC6599211, “Structural basis of TFIIH activation for nucleotide excision repair” (Nature Communications, 2019).

The target of series [1] is XPB (core TFIIH);XPD (core TFIIH);p62 (core TFIIH);p52 (core TFIIH);p44 (core TFIIH);p34 (core TFIIH);TTDA/p8 … (Homo sapiens;Homo sapiens;Homo …, UniProt P19447;P18074;P32780;Q92759;Q13888;Q13889;Q6ZYL4;P23025 …, |||||||). Kind of series: cryo-EM structure (3.6 A); 2 mM Mg2+ at assembly; XPG E791A added (3:1 excess over TFIIH) but not visible in the map; glutaraldehyde-fixed gradient; DNA register shift not excluded; Complex assembly: 150 mM KCl, 20 mM KOH:HEPES pH 7.0, 10% glycerol, 2 mM MgCl2, 5 mM beta-mercaptoethanol; sucrose gradient pH 7.5, 4 C, 0.1% glutaraldehyde; helicase/triplex assays (turnover) left out. Conditions: copies: 1;1;1;1;1;1;1;1; fork, 29 bp duplex 1:21-49 with 2:1-29; unpaired arms 20 nt 5' (strand 1: 1-20) and 20 nt 3' (strand 2: 30-49).

Series [2] has as its target human TFIIH core module (core TFIIH), seven subunits: XPB, XPD, p62, p52, p44, p34, TTDA (human, UniProt P19447 1-782; P18074 1-760; P32780 1-548; Q92759 1-462; Q13888 1-395; Q13889 …). Briefly: cell-based or functional assay.

B1: cryo-EM DNA scaffold (forked) (mixed)
DNA 1: CAAAGTCACGACCTAGACACTGCGAGCTCGAATTCACTGGAGTGACCTC
DNA 2: GAGGTCACTCCAGTGAATTCGAGCTCGCAACAATGAGCACATACCTAGT
In the case of B1, in series [1], the binding result is listed as “binds”.

B2: XPG (natural protein, human, UniProt P28715 1-1186, looked up)
chain: MGVQGLWKLLECSGRQVSPEALEGKILAVDISIWLNQALKGVRDRHGNSIENPHLLTLFHRLCKLLFFRIRPIFVFDGDAPLLKKQTLVKRRQRKDLASSDSRKTTEKLLKTFLKRQAIKTAFRSKRDEALPSLTQVRRENDLYVLPPLQEEEKHSSEEEDEKEWQERMNQKQALQEEFFHNPQAIDIESEDFSSLPPEVKHEILTDMKEFTKRRRTLFEAMPEESDDFSQYQLKGLLKKNYLNQHIEHVQKEMNQQHSGHIRRQYEDEGGFLKEVESRRVVSEDTSHYILIKGIQAKTVAEVDSESLPSSSKMHGMSFDVKSSPCEKLKTEKEPDATPPSPRTLLAMQAALLGSSSEEELESENRRQARGRNAPAAVDEGSISPRTLSAIKRALDDDEDVKVCAGDDVQTGGPGAEEMRINSSTENSDEGLKVRDGKGIPFTATLASSSVNSAEEHVASTNEGREPTDSVPKEQMSLVHVGTEAFPISDESMIKDRKDRLPLESAVVRHSDAPGLPNGRELTPASPTCTNSVSKNETHAEVLEQQNELCPYESKFDSSLLSSDDETKCKPNSASEVIGPVSLQETSSIVSVPSEAVDNVENVVSFNAKEHENFLETIQEQQTTESAGQDLISIPKAVEPMEIDSEESESDGSFIEVQSVISDEELQAEFPETSKPPSEQGEEELVGTREGEAPAESESLLRDNSERDDVDGEPQEAEKDAEDSLHEWQDINLEELETLESNLLAQQNSLKAQKQQQERIAATVTGQMFLESQELLRLFGIPYIQAPMEAEAQCAILDLTDQTSGTITDDSDIWLFGARHVYRNFFNKNKFVEYYQYVDFHNQLGLDRNKLINLAYLLGSDYTEGIPTVGCVTAMEILNEFPGHGLEPLLKFSEWWHEAQKNPKIRPNPHDTKVKKKLRTLQLTPGFPNPAVAEAYLKPVVDDSKGSFLWGKPDLDKIREFCQRYFGWNRTKTDESLFPVLKQLDAQQTQLRIDSFFRLAQQEKEDAKRIKSQRLNRAVTCMLRKEKEAAASEIEAVSVAMEKEFELLDKAKGKTQKRGITNTLEESSSLKRKRLSDSKGKNTCGGFLGETCLSESSDGSSSEDAESSSLMNVQRRTAAKEPKTSASDSQNSVKEAPVKNGGATTSSSSDSDDDGGKEKMVLVTARSVFGKKRRKLRRARGRKRKT
For the molecule B2, the “XPD 5′–3′ helicase activity of core TFIIH (rate of DNA unwinding, stopped-flow kinetics), with XPG against without” value in series [2] came out at 20 fold.
